The series deals with thrombin (human, UniProt P00734;P00734 328-363;364-622). Description: organic electrochemical transistor.

Broadly, the Kd is the free concentration of one partner at which half of the binding sites on the other are occupied at equilibrium, for simple one-to-one binding. Low readings indicate a tighter complex, high ones a looser complex. TTTTTAGTCCGTGGTAGGGCAGGTTGGGGTGACT (ssDNA, 5' DBCO-TEG) [DBCO-HD22 thrombin aptamer] came in with a Kd of 103 ± 44 nM.

These data come from article PMC9795466.
